One block for each binder: values may come before it.
B1: HA-CCT2 (chaperonin subunit CCT2, wild type, N-terminal HA tag) (other)
chain: ASLSLAPVNIFKAGADEERAETARLTSFIGAIAIGDLVKSTLGPKGMDKILLSSGRDASLMVTNDGATILKNIGVDNPAAKVLVDMSRVQDDEVGDGTTSVTVLAAELLREAESLIAKKIHPQTIIAGWREATKAAREALLSSAVDHGSDEVKFRQDLMNIAGTTLSSKLLTHHKDHFTKLAVEAVLRLKGSGNLEAIHIIKKLGGSLADSYLDEGFLLDKKIGVNQPKRIENAKILIANTGMDTDKIKIFGSRVRVDSTAKVAEIEHAEKEKMKEKVERILKHGINCFINRQLIYNYPEQLFGAAGVMAIEHADFAGVERLALVTGGEIASTFDHPELVKLGSCKLIEEVMIGEDKLIHFSGVALGEACTIVLRGATQQILDEAERSLHDALCVLAQTVKDSRTVYGGGCSEMLMAHAVTQLANRTPGKEAVAMESYAKALRMLPTIIADNAGYDSADLVAQLRAAHSEGNTTAGLDMREGTIGDMAILGITESFQVKRQVLLSAAEAAEVILRVDNIIKAAPRKRVPDHHPC
notes: Expressed in HEK293T or U2OS from pFUGW-HA-CCT2; CCT genes were amplified from HEK293T cDNA; also called WT CCT2; HA-CCT2 WT; not shown: N-terminal HA tag

Columns and labels:
T7-LC3B = T7-LC3B (UniProt Q9GZQ8 1-120); assay: co-IP of HA-CCT2 with T7-ATG8s in HEK293T
From the text: The cells were permeabilized with digitonin before fixation. [0136] (G) Quantification of LC3 around Q103-HTT IB (mean±SEM) as shown in (F). […] [0137] […] The cells were permeabilized with digitonin before immunoblot analysis. LE, long exposure; SE, short exposure. [0138] (I) Quantification of normalized Q103-HTT (mean±SEM) in (H). […] [0139] […] The VLIR motif VIL is highlighted in red. [0140] […] The data are representative of three independent experiments. [0141] […] The cells were permeabilized with digitonin before fixation. [0142] (M) Quantification of LC3 around IBs (mean±SEM) as shown in (L). […] [0143] […] [0144] (O) Quantification of normalized Q103-HTT (mean±SEM) in (N).
Co-immunoprecipitation was performed essentially as described before. In brief, 24 h after transfection, the cells were collected and lysed on ice for 30 min in co-IP buffer (50 mM Tris/HCl pH 7.4, 150 mM NaCl, 1 mM EDTA, 0.5% NP40) with protease inhibitor mixture, and the lysates were cleared by centrifugation. The resulting supernatants were incubated with indicated agarose or magnetic beads and rotated at 4° C. for 3 h. The agarose was washed five times with co-IP buffer. As for the BFP-tagged Q103, the supernatants were incubated with rabbit anti-BFP antibodies and Protein A/G PLUS-Agarose according to the manufacturers' protocol. […]

[1] = target: T1, His-T7-LC3C (purified protein) (UniProt Q9BXW4 1-147); assay: in vitro pull-down of purified proteins, immunoblot
T1 construct: Purified on Ni sepharose; used in peptide and protein pull-downs; also called T7-LC3C protein; purified LC3C; not shown: His and T7 tags
T1 sequence (Q9BXW4 whole entry): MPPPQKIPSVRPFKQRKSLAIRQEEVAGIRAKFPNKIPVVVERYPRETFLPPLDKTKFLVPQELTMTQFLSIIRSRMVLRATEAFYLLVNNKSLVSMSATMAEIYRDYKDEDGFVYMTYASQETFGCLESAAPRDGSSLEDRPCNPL

[2] = target: T2, T7-LC3C (expressed in cells) (UniProt Q9BXW4 1-126); assay: co-IP with T7-LC3C in HEK293T
T2 construct: Expressed from pCDNA3-T7-LC3C; not shown: T7 tag
T2 sequence (Q9BXW4 1-126): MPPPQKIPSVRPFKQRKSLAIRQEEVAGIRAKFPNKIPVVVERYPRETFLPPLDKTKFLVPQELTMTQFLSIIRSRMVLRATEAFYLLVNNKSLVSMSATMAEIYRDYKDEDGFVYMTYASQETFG
Procedure: (§1) The data are representative of three independent experiments. [0146] […] The data are representative of three independent experiments. [0147] […] The data are representative of three independent experiments. [0148] […] The interaction of the peptides with T7-GABARAP or T7-GABARAPL1 proteins was analyzed by in vitro pull-down. The data are representative of three independent experiments. [0149] […] The data are representative of three independent experiments. [0150] […] [0151] (K) Quantification of Q103-HTT-GFP area/DAPI area (mean±SEM) as shown in [0152] (J). 48 h represents IB accumulation stage and 72 h represents clearance stage. P values are indicated (two-tailed t test, >20 views from three independent experiments). [0153] […] The data are representative of three independent experiments. [0154] […] The data are representative of three independent experiments. [0155] […] The data are representative of three independent experiments.
(§2) Co-immunoprecipitation was performed essentially as described before. In brief, 24 h after transfection, the cells were collected and lysed on ice for 30 min in co-IP buffer (50 mM Tris/HCl pH 7.4, 150 mM NaCl, 1 mM EDTA, 0.5% NP40) with protease inhibitor mixture, and the lysates were cleared by centrifugation. The resulting supernatants were incubated with indicated agarose or magnetic beads and rotated at 4° C. for 3 h. The agarose was washed five times with co-IP buffer.

[3] = target: B1; assay: co-IP of HA-CCT2 with T7-GABARAP in HEK293T
Procedure: as §1, §2

[4] = target: T3, His-mRuby2-CCT2 (purified) (human, UniProt P78371 2-535); assay: recruitment of 4 uM mRuby2-CCT2 to FUS P525L granules in vitro, imaging
T3 construct: 4 uM added to FUS P525L granules in vitro; also called CCT2 protein; not shown: His tag and mRuby2
T3 sequence: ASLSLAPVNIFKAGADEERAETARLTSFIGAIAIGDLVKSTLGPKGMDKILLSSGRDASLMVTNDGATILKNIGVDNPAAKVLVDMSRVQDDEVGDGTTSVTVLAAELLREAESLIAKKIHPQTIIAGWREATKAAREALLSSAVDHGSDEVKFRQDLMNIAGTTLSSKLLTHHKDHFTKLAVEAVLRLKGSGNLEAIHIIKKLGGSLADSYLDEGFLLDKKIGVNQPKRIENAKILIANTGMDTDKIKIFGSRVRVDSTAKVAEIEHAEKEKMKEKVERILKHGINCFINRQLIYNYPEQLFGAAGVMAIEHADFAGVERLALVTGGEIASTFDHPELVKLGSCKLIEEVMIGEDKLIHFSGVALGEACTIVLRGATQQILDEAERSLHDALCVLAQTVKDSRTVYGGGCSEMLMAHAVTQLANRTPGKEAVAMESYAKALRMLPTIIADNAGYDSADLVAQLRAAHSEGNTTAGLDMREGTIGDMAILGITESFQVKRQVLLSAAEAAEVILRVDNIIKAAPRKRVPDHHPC
From the text: [0179] […] [0180] […] [0181] […] [0182] […] [0184] […] [0185] […] [0186]

[5] = target: T1, His-T7-LC3C (purified protein); assay: peptide pull-down, immunoblot
From the text: The data are representative of three independent experiments. […] The cells were permeabilized with digitonin before fixation. [0136] (G) Quantification of LC3 around Q103-HTT IB (mean±SEM) as shown in (F). […] [0137] […] The cells were permeabilized with digitonin before immunoblot analysis. LE, long exposure; SE, short exposure. [0138] (I) Quantification of normalized Q103-HTT (mean±SEM) in (H). […] [0139] […] The VLIR motif VIL is highlighted in red. [0140] […] The data are representative of three independent experiments. [0141] […] The cells were permeabilized with digitonin before fixation. [0142] (M) Quantification of LC3 around IBs (mean±SEM) as shown in (L). […] [0143] […] [0144] (O) Quantification of normalized Q103-HTT (mean±SEM) in (N).
After washing, 2×SDS loading buffer was added to the beads, and immunoblot was performed as described previously.

Binder: B1
binding result (T7-LC3B): binds

B2: GST-HA-CCT2 with VLL and VIL mutated (purified) (other)
chain: ASLSLAPVNIFKAGADEERAETARLTSFIGAIAIGDLVKSTLGPKGMDKILLSSGRDASLMVTNDGATILKNIGVDNPAAKVLVDMSRVQDDEVGDGTTSVTVLAAELLREAESLIAKKIHPQTIIAGWREATKAAREALLSSAVDHGSDEVKFRQDLMNIAGTTLSSKLLTHHKDHFTKLAVEAVLRLKGSGNLEAIHIIKKLGGSLADSYLDEGFLLDKKIGVNQPKRIENAKILIANTGMDTDKIKIFGSRVRVDSTAKVAEIEHAEKEKMKEKVERILKHGINCFINRQLIYNYPEQLFGAAGVMAIEHADFAGVERLALVTGGEIASTFDHPELVKLGSCKLIEEVMIGEDKLIHFSGVALGEACTIVLRGATQQILDEAERSLHDALCVLAQTVKDSRTVYGGGCSEMLMAHAVTQLANRTPGKEAVAMESYAKALRMLPTIIADNAGYDSADLVAQLRAAHSEGNTTAGLDMREGTIGDMAILGITESFQVKRQAAASAAEAAEAAARVDNIIKAAPRKRVPDHHPC
notes: also called GST-CCT2s; CCT2 with mutation of VLL and VIL; not shown: N-terminal GST and HA tags
binding result [1]: no binding

B6: GFP-FUS P525L (purified, after TEV digestion of MBP-TEV-GFP-FUS P525L) (other, UniProt P35637 1-526, looked up)
chain: MASNDYTQQATQSYGAYPTQPGQGYSQQSSQPYGQQSYSGYSQSTDTSGYGQSSYSSYGQSQNTGYGTQSTPQGYGSTGGYGSSQSSQSSYGQQSSYPGYGQQPAPSSTSGSYGSSSQSSSYGQPQSGSYSQQPSYGGQQQSYGQQQSYNPPQGYGQQNQYNSSSGGGGGGGGGGNYGQDQSSMSSGGGSGGGYGNQDQSGGGGSGGYGQQDRGGRGRGGSGGGGGGGGGGYNRSSGGYEPRGRGGGRGGRGGMGGSDRGGFNKFGGPRDQGSRHDSEQDNSDNNTIFVQGLGENVTIESVADYFKQIGIIKTNKKTGQPMINLYTDRETGKLKGEATVSFDDPPSAKAAIDWFDGKEFSGNPIKVSFATRRADFNRGGGNGRGGRGRGGPMGRGGYGGGGSGGGGRGGFPSGGGGGGGQQRAGDWKCPNPTCENMNFSWRNECNQCKAPKPDGPGGGPGGSHMGGNYGDDRRGGRGGYDRGGYRGRGGDRGGFRGGRGGGDRGGFGPGKMDSRGEHRQDRRERLY
notes: 2 uM protein, as liquid granules (phase separation) or as solid aggregates (shaken at 700 rpm); also called FUS P525L granules; not shown: GFP
binding result [4]: binds

B7: CCT2 domain3 peptide 7 mVL(I)L (peptide)
peptide: ILGITESFQVKRQAAASAAEAAEAAARVDN
notes: Synthetic peptide coupled to agarose beads; VLL and VIL replaced by alanines; also called peptide 7 mutant (mVL (I) L)
binding result [5]: no binding

The remaining lines, values ahead:

binding result [2]: no binding
B3: HA-CCT2 mVLL (other)
chain: ASLSLAPVNIFKAGADEERAETARLTSFIGAIAIGDLVKSTLGPKGMDKILLSSGRDASLMVTNDGATILKNIGVDNPAAKVLVDMSRVQDDEVGDGTTSVTVLAAELLREAESLIAKKIHPQTIIAGWREATKAAREALLSSAVDHGSDEVKFRQDLMNIAGTTLSSKLLTHHKDHFTKLAVEAVLRLKGSGNLEAIHIIKKLGGSLADSYLDEGFLLDKKIGVNQPKRIENAKILIANTGMDTDKIKIFGSRVRVDSTAKVAEIEHAEKEKMKEKVERILKHGINCFINRQLIYNYPEQLFGAAGVMAIEHADFAGVERLALVTGGEIASTFDHPELVKLGSCKLIEEVMIGEDKLIHFSGVALGEACTIVLRGATQQILDEAERSLHDALCVLAQTVKDSRTVYGGGCSEMLMAHAVTQLANRTPGKEAVAMESYAKALRMLPTIIADNAGYDSADLVAQLRAAHSEGNTTAGLDMREGTIGDMAILGITESFQVKRQAAASAAEAAEVILRVDNIIKAAPRKRVPDHHPC
notes: also called CCT2 VLL mutated to alanine; not shown: N-terminal HA tag

binding result [3]: binds
B4: T7-GABARAP (expressed in cells) (other, UniProt O95166 1-116, looked up)
chain: MKFVYKEEHPFEKRRSEGEKIRKKYPDRVPVIVEKAPKARIGDLDKKKYLVPSDLTVGQFYFLIRKRIHLRAEDALFFFVNNVIPPTSATMGQLYQEHHEEDFFLYIAYSDESVYG
notes: not shown: T7 tag

binding result [2]: no binding
B5: HA-CCT2 mVIL (other)
chain: ASLSLAPVNIFKAGADEERAETARLTSFIGAIAIGDLVKSTLGPKGMDKILLSSGRDASLMVTNDGATILKNIGVDNPAAKVLVDMSRVQDDEVGDGTTSVTVLAAELLREAESLIAKKIHPQTIIAGWREATKAAREALLSSAVDHGSDEVKFRQDLMNIAGTTLSSKLLTHHKDHFTKLAVEAVLRLKGSGNLEAIHIIKKLGGSLADSYLDEGFLLDKKIGVNQPKRIENAKILIANTGMDTDKIKIFGSRVRVDSTAKVAEIEHAEKEKMKEKVERILKHGINCFINRQLIYNYPEQLFGAAGVMAIEHADFAGVERLALVTGGEIASTFDHPELVKLGSCKLIEEVMIGEDKLIHFSGVALGEACTIVLRGATQQILDEAERSLHDALCVLAQTVKDSRTVYGGGCSEMLMAHAVTQLANRTPGKEAVAMESYAKALRMLPTIIADNAGYDSADLVAQLRAAHSEGNTTAGLDMREGTIGDMAILGITESFQVKRQVLLSAAEAAEAAARVDNIIKAAPRKRVPDHHPC
notes: also called CCT2 VIL mutated to alanine; not shown: N-terminal HA tag

From patent US20240350586A1 (TSINGHUA UNIVERSITY, published 2024)
